Among the data in US20120121587A1 (Chugai, published 2012) are Kd values, retold here.

Like-named read-outs stand apart in the source and are kept apart here.

Test in all cases: SPR (Biacore T100): antibody captured on Protein A, GST-FND1 as analyte
(SPR reads the build-up and loss of mass on a sensor chip optically.)

Experiment [1] deals with T1, Human recombinant AXL-FND1 (GST-FND1), from pET-41b(+) (human, UniProt P30530 225-331).
T1 construct: Expressed in E. coli, purified on Glutathione Sepharose; analyte in all Biacore measurements; GST put first by the usual layout of pET-41; not shown: GST-tag of vector pET-41b(+) (Novagen)
T1 sequence (looked up): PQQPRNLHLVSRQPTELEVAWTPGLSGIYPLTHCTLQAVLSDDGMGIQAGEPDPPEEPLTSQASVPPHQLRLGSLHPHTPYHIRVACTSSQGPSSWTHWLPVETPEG
Here is the method: (§1) Kinetic analyses of antigen-antibody reactions of humanized AXL antibodies were carried out using Biacore T100 (BIACORE). rec-Protein A (Zymed) (hereinafter, Protein A) was immobilized onto a sensor chip, various antibodies were bound to it, then an antigen as the analyte was flushed to measure the antibody-antigen interaction. Human recombinant AXL-FND1 (prepared in 2-2; hereinafter referred to as GST-FND1) prepared at various concentrations was used as the antigen. From the sensorgrams obtained through the measurements, kinetic parameters, namely binding rate constant kₐ (1/Ms) and dissociation rate constant kd (1/s), were calculated, and Kd (M) was calculated based on these values. Biacore T100 Evaluation Software (BIACORE) was used to calculate each of the parameters.
(§2) The sensor chips were produced by immobilizing approximately 3000 RU of Protein A onto CM5 (BIACORE) by amine coupling. Using the produced sensor chip, kinetic analyses were carried out on the interaction between the Protein A-bound antibodies and GST-FND1. HBS-EP+ was used as the running buffer, and the flow rate was set to 30 μL/min. Each antibody was prepared at 1 μg/mL using the running buffer, and was subjected to binding with Protein A for two minutes. GST-FND1 as the analyte was prepared at 0.5 and 2.0 μg/mL using HBS-EP+. […]

Experiment [2] addresses T1, Human recombinant AXL-FND1 (GST-FND1), …. Here is the method:
as §1, §2
The source holds these as a separate data set.

The target is the same in experiment [3]. A digest of the protocol:
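Antibodies (1 μg/mL) were captured for 2 min on a Protein A CM5 chip. GST-FND1 (0.5 and 2.0 μg/mL) in HBS-EP+ was flowed at 30 μL/min with 2 min association and 2 min dissociation at 25° C. ka and kd were fitted from sensorgrams and Kd was calculated from them.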
This is another data set of the same source.

Experiment [4] shares this target. Here is the method: as §1
The sensor chips were produced by immobilizing approximately 3000 RU of Protein A onto CM5 (BIACORE) by amine coupling. Using the produced sensor chip, kinetic analyses were carried out on the interaction between the Protein A-bound antibodies and GST-FND1. HBS-EP+ was used as the running buffer, and the flow rate was set to 30 μL/min. Each antibody was prepared at 1 μg/mL using the running buffer, and was subjected to binding with Protein A for two minutes. GST-FND1 as the analyte was prepared at 0.5 and 2.0 μg/mL using HBS-EP+. Measurements were carried out by first binding the various humanized AXL antibodies, chimeric AXL antibodies, or mouse AXL antibodies of interest to Protein A, then applying an analyte solution to them for a two-minute interaction, and then switching to HBS-EP+ (BIACORE) for a two-minute measurement of the dissociation phase. After completion of measurement of the dissociation phase, 30 μL of 10 mM glycine-HCl (pH 2.0) was used for washing to regenerate the sensor chip. Such binding, dissociation, and regeneration were defined as one cycle of analysis. All experiments were performed at 25° C.
Affinity measurements on the produced variants were carried out by the method of Example 2.
The source holds these as a separate data set.

B1: chH/L0 (antibody, V domains shown, not shown: a dimerising Fc or GST)
VH: QVQLKQSGPGLVAPSQSLSITCTVSGLSLTSFGVDWVRQSPGKGLEWLGVIWGGGSTNYNSALKSRLSISKDNSKSQVFLKMNSLQTDDTAMYYCAGEGSKYGAWFAYWGQGTLVTVSA
VL: DVVMTQSPLSLPVTLGQPASISCRSSQNIVHTNGNTYLEWYQQKPGKAPELLIYKVSNRFSGVPDRFSGSGSGTDFTLKISRVEAEDVGVYYCFQGSHIPFTFGQGTKLEIKR
notes: Chimeric H chain with humanized L chain
The term Kd denotes the equilibrium constant for the complex coming apart. As to B1, in experiment [1], the Kd was 1.59 nM.

B2: H0/L0 (antibody, human IgG1, kappa, V domains shown)
VH: QVTLKESGPVLVKPTETLTLTCTVSGFSLSSFGVDWVRQAPGKGLEWMGVIWGGGSTNYNSALKSRLTISKDTSKSQVVLTMTNMDPVDTATYYCAGEGSKYGAWFAYWGQGTLVTVSS
VL: DVVMTQSPLSLPVTLGQPASISCRSSQNIVHTNGNTYLEWYQQKPGKAPELLIYKVSNRFSGVPDRFSGSGSGTDFTLKISRVEAEDVGVYYCFQGSHIPFTFGQGTKLEIKR
notes: Humanized Ax225; IgG1 constant region without G446 and K447 (EU), natural human kappa
As to B2, in experiment [2], the Kd was 4.44 nM.

B3: H9/L0 (antibody, human IgG1, kappa)
heavy: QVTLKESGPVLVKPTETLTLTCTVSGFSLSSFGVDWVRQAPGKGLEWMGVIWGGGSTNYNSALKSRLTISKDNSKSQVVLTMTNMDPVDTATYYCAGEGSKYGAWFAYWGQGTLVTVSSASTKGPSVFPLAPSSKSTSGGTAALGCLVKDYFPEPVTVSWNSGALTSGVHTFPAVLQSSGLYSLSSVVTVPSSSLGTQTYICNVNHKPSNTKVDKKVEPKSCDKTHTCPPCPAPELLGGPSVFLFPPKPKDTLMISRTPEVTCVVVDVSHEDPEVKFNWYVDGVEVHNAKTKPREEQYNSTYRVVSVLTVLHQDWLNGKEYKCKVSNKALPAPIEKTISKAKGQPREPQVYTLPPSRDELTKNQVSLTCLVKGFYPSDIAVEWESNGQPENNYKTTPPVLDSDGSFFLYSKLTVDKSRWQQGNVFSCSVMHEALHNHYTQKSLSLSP
light: DVVMTQSPLSLPVTLGQPASISCRSSQNIVHTNGNTYLEWYQQKPGKAPELLIYKVSNRFSGVPDRFSGSGSGTDFTLKISRVEAEDVGVYYCFQGSHIPFTFGQGTKLEIKRTVAAPSVFIFPPSDEQLKSGTASVVCLLNNFYPREAKVQWKVDNALQSGNSQESVTEQDSKDSTYSLSSTLTLSKADYEKHKVYACEVTHQGLSSPVTKSFNRGEC
notes: also called humanized Ax225 antibody (H9/L0)
With B3, the dissociation constant Kd in experiment [3], in experiment [2] and in experiment [4] was 3.58 nM each time.

B4: H9/L36 (antibody, human IgG1, kappa, V domains shown)
VH: QVTLKESGPVLVKPTETLTLTCTVSGFSLSSFGVDWVRQAPGKGLEWMGVIWGGGSTNYNSALKSRLTISKDNSKSQVVLTMTNMDPVDTATYYCAGEGSKYGAWFAYWGQGTLVTVSS
VL: DVVMTQSPLSLPVTLGQPASISCRSSQNIVHTNANTYLEWYQQKPGKAPELLIYKVSNRFSGVPDRFSGSGSGTDFTLKISRVEAEDVGVYYCFQGSHIPFTFGQGTKLEIKR
Turning to B4, in experiment [4], the Kd amounted to 3.6 nM.

B5: H6/L0 (antibody, V domains shown, not shown: a dimerising Fc or GST)
VH: QVQLKQSGPGLVAPSQSLSITCTVSGLSLTSFGVDWVRQSPGKGLEWLGVIWGGGSTNYNSALKSRLSISKDNSKSQVFLKMNSLQTDDTAMYYCAREGSKYGAWFAYWGQGTLVTVSA
VL: DVVMTQSPLSLPVTLGQPASISCRSSQNIVHTNGNTYLEWYQQKPGKAPELLIYKVSNRFSGVPDRFSGSGSGTDFTLKISRVEAEDVGVYYCFQGSHIPFTFGQGTKLEIKR
notes: H6 is chH with arginine for glycine at Kabat position 94
As to B5, in experiment [1], the Kd was 12.3 nM.

B6: H36/L36 (antibody, human IgG1, kappa, V domains shown)
VH: QVTLKESGPVLVKPTETLTLTCTVSGFSLSSFGVDWVRQARGQRLEWMGVIWGGGSTNYNSALKSRLTISKDNSKSQVVLTMTNMDPVDTATYYCAGEGSKYGAWFAYWGQGTLVTVSS
VL: DVVMTQSPLSLPVTLGQPASISCRSSQNIVHTNANTYLEWYQQKPGKAPELLIYKVSNRFSGVPDRFSGSGSGTDFTLKISRVEAEDVGVYYCFQGSHIPFTFGQGTKLEIKR
Consider B6, for which the Kd in experiment [4] stood at 2.59 nM.

B7: H32/L21 (antibody, human IgG1, kappa, V domains shown)
VH: QVTLKESGPVLVKPTETLTLTCTVSGFSLSSFGVDWVRQAPGKGLEWMGVIWGGGSTNYNEALQDRLTISKDNSKSQVVLTMTNMDPVDTATYYCAGEGSKYGAWFAYWGEGTLVTVSS
VL: DVVMTQSPLSLPVTLGQPASISCQSSQNIVHTNANTYLEWYQQKPGKAPELLIYKVSNRFSGVPDRFSGSGSGTDFTLKISRVEAEDVGVYYCFQGSHIPFTFGQGTKVEIER
As to B7, the Kd in experiment [4] amounted to 3.81 nM.
